Laboratory results as given in patent US20250313615A1 (ANNEXON, published 2025).

Molecular target: T1, complement factor C1q (Homo sapiens, UniProt P02745 23-245; P02746 28-253; P02747 29-245)
T1 construct: also called soluble C1q
Assay: in vivo, phase 1b interim analysis in four lupus nephritis patients; pharmacodynamic read-out

T1 sequence (P02745 23-245 limits assumed, chain 1 of 3): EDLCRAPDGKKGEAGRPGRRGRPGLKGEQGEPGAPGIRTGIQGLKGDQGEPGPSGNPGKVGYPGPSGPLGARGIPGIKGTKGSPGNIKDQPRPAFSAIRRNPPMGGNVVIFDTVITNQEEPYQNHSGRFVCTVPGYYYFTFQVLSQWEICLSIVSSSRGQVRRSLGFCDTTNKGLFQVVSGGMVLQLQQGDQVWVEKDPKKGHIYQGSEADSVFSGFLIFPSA
T1 sequence (P02746 28-253 limits assumed, chain 2 of 3): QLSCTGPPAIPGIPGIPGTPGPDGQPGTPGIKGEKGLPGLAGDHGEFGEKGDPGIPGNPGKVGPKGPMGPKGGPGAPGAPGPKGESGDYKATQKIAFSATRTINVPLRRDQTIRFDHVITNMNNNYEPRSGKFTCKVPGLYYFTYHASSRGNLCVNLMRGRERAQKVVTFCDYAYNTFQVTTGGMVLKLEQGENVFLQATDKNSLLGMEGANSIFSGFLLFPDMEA
T1 sequence (P02747 29-245 limits assumed, chain 3 of 3): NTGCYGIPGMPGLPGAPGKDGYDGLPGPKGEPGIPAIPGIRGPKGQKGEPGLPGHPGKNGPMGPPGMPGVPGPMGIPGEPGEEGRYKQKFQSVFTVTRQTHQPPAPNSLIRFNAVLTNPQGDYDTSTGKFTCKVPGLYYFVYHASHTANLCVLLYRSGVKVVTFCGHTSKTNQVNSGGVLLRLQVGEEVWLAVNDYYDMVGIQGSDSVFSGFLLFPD

binding result: binds
B1: FabA (Fab)
heavy: QVQLVQSGAELKKPGASVKVSCKSSGYHFTSYWMHWVKQAPGQGLEWIGVIHPNSGSINYNEKFESRVTITVDKSTSTAYMELSSLRSEDTAVYYCAGERDSTEVLPMDYWGQGTTVTVSSASTKGPSVFPLAPSSKSTSGGTAALGCLVKDYFPEPVTVSWNSGALTSGVHTFPAVLQSSGLYSLSSVVTVPSSSLGTQTYICNVNHKPSNTKVDKKVEPKSCDKTHT
light: DVQITQSPSSLSASLGERATINCRASKSINKYLAWYQQKPGKAPKLLIYSGSTLQSGIPARFSGSGSGTDFTLTISSLEPEDFAMYYCQQHNEYPLTFGQGTKLEIKRTVAAPSVFIFPPSDEQLKSGTASVVCLLNNFYPREAKVQWKVDNALQSGNSQESVTEQDSKDSTYSLSSTLTLSKADYEKHKVYACEVTHQGLSSPVTKSFNRGEC
notes: also called anti-C1q Fab; anti-C1q antibody Fab fragment
